According to patent US20260132182A1 (published 2026):
Read-outs that look alike come from different tables or passages of the source. Starred links: 1 amine or outer side, 2 acyl side, 3 side chain; linkers in the order of their positions; H or OH if unused. Non-standard residues stand in square brackets, D forms with d. Groups on a side chain read outwards from the residue. No end group written: not given here. *: point of attachment. Butyryl(4-SO2NHCO(CH2)16Tz) = O=C(CCCCCCCCCCCCCCCCc1nnn[nH]1)NS(=O)(=O)CCCC(=O)*; Decanoyl(10-(4-HOOC-PhO)) = O=C(O)c1ccc(OCCCCCCCCCC(=O)*)cc1; C20 diacid = O=C(O)CCCCCCCCCCCCCCCCCCC(=O)*; C18 diacid = O=C(O)CCCCCCCCCCCCCCCCC(=O)*; C16 diacid = O=C(O)CCCCCCCCCCCCCCC(=O)*; γGlu = O=C(O)[C@H](CCC(=O)[*:2])N[*:1]; εLys = N[C@@H](CCCCN[*:1])C(=O)[*:2]; Trx = NC[C@H]1CC[C@H](C(=O)O)CC1; AEEA = NCCOCCOCC(=O)O; Aib = CC(C)(N)C(=O)O

T1: human amylin-3 (a) receptor (human, UniProt P30988 25-474; O60896 24-148)
T1 sequence (looked up) 1: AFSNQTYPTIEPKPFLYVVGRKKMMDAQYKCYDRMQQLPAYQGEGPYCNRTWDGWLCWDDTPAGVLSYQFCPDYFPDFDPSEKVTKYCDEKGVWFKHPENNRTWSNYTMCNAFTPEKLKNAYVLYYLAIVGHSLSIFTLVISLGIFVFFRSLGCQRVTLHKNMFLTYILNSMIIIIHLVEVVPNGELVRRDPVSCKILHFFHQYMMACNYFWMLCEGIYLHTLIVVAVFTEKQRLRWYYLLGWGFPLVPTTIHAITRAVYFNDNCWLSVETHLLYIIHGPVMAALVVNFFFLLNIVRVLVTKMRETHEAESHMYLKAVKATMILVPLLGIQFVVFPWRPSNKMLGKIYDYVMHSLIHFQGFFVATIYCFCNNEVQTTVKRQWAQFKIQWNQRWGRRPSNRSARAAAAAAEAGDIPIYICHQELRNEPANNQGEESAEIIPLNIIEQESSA
T1 sequence (looked up) 2: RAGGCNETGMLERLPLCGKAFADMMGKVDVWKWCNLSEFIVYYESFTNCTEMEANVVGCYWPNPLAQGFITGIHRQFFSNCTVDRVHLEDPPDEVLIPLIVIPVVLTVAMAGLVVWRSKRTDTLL


Tests used:
Experiment in all cases: cell-based or functional assay
[1] = biological target: T2, human GLP-1 receptor (human, UniProt P43220 24-463)
[2] = biological target: T1, human amylin-3 (a) receptor
[3] = biological target: T2, human GLP-1 receptor; remark: listed apart in the source
[4] = biological target: T1, human amylin-3 (a) receptor; remark: listed apart in the source
[5] = biological target: T1, human amylin-3 (a) receptor; remark: listed apart in the source

Row | Binder | Human GLP-1R potency [EC50 (pM)] [1] [pM] | Human AmyR3 potency [EC50 (pM)] [2] [pM] | Human GLP-1R potency [EC50 (pM)] [3] [pM] | Human AmyR3 potency [EC50 (pM)] [4] [pM] | Human AmyR3 potency [EC50 (pM)] [5] [pM]
1 | Compound 0120 (peptide) peptide: H[Aib]EGTFTSDVSSYLEEQAAREFIAWLVRGRK([AEEA-AEEA-γGlu-Trx-C20 diacid])GGGGEASELSTAALGRLSAELHELATLPRTETGSGSP-NH2 | 9.1 | 10.6 |  |  | 
2 | Comparator compound 0668 (ends and bridges not checked) peptide: H[Aib]EGTFTSDVSSYLEGQAAK([AEEA-AEEA-γGlu-C18 diacid])EFIAWLVRGRGGQEPGQEPK([γGlu-γGlu-C16 diacid])CNTATCATQRLADFLRHSSPNFGAIPSSTNVGSRTY-NH2 |  |  | 455 | 10000 | 
3 | EASELSTAALGRLSAELHELATLPRTETGSGSP-NH2 (not fully specified) [Compound 1806] |  |  |  |  | 5
4 | Compound 0102 (peptide) peptide: H[Aib]EGTFTSDVSSYLEEQAAREFIAWLVRGRK(Butyryl(4-SO2NHCO(CH2)16Tz))ELSTAALGRLSAELHELATLPRTETGSGSP-NH2 | 14.7 | 9.8 |  |  | 
5 | Compound 0116 (peptide) peptide: H[Aib]EGTFTSDVSSYLEEQAARK([AEEA-AEEA-γGlu-C18 diacid])FIAWLVRGRK([AEEA-AEEA-γGlu-C18 diacid])GGEASELSTAALGRLSAELHELATLPRTETGSGSP-NH2 | 1.5 | 21.7 |  |  | 
6 | Compound 0019 (peptide) peptide: H[Aib]EGTFTSDVSSYLEGQAAK([AEEA-AEEA-γGlu-C18 diacid])EFIAWLVRGRGGQEPGQEPEASELSTAALGRLSAELHELATLPRTETGSGSP-NH2 | 13.7 | 26.5 |  |  | 
7 | Comparator compound 0164 (peptide) peptide: H[Aib]EGTFTSDVSSYLEGQAAKEIFAWLVRGRK([εLys-AEEA-AEEA-γGlu-C18 diacid])GGEASELSTAALGRLSAELHELATLPRTETGSGSP-NH2 |  |  | 852 | 29.6 | 
8 | Comparator compound 0185 (peptide) peptide: H[Aib]EGTFTSDVSSYLEGQAAKEFIAWLVRGRK([εLys-AEEA-AEEA-γGlu-C18 diacid])GGEASELSTAALGRPSAELHELATLPRTETGSGSP-NH2 |  |  | 13.1 | 5660 | 
9 | Compound 0115 (peptide) peptide: H[Aib]EGTFTSDVSSYLEEQAAREFIAWLVRGRK([AEEA-AEEA-γGlu-C18 diacid])EASELSTAALGRLSAELHELATLPRTETGSGSP-NH2 | 2.2 | 22.8 |  |  | 
10 | Compound 0094 (peptide) peptide: H[Aib]EGTFTSDVSSYLEGQAAK([AEEA-AEEA-γGlu-C20 diacid])EFIAWLVRGRGGGGGGGGGEASELSTAALGRLSAELHELATLPRTETGSGSP-NH2 | 7.5 | 11.3 |  |  | 
11 | Compound 0109 (peptide) peptide: H[Aib]EGTFTSDVSSYLEEQAARK([AEEA-AEEA-γGlu-C18 diacid])FIAWLVRGK([AEEA-AEEA-γGlu-C18 diacid])GGGGGGGGGEASELSTAALGRLSAELHELATLPRTETGSGSP-NH2 | 3.2 | 19.1 |  |  | 
12 | KCNTATCATQRLANFLVHSSNNFGPILPPTNVGSNTY [Pramlintide] |  |  |  | 7.8 | 7.8
13 | Comparator compound 0016 (ends and bridges not checked) peptide: H[Aib]EGTFTSDVSSYLEGQAAK([AEEA-AEEA-γGlu-C18 diacid])EFIAWLVRGRGGQEPGQEPK([AEEA-AEEA-γGlu-C18 diacid])CNTATCATQRLAEFLRHSSNNFGPILPPTNVGSNTP-NH2 |  |  | 510 | 1550 | 
14 | Compound 0095 (peptide) peptide: H[Aib]EGTFTSDVSSYLEGQAAK([AEEA-AEEA-γGlu-Trx-C20 diacid])EFIAWLVRGRGGGGGGGGGEASELSTAALGRLSAELHELATLPRTETGSGSP-NH2 | 7.4 | 6.6 |  |  | 
15 | Compound 0114 (peptide) peptide: H[Aib]EGTFTSDVSSYLEEQAAREFIAWLVRGRK([AEEA-AEEA-γGlu-C18 diacid])GGEASELSTAALGRLSAELHELATLPRTETGSGSP-NH2 | 1 | 17.5 |  |  | 
16 | Compound 0103 (peptide) peptide: H[Aib]EGTFTSDVSSYLEEQAAREFIAWLVRGRK(Butyryl(4-SO2NHCO(CH2)16Tz))EASELSTAALGRLSAELHELATLPRTETGSGSP-NH2 | 28.1 | 11.6 |  |  | 
17 | Comparator compound 0167 (peptide) peptide: H[Aib]EGTFTSDVSSYLEEQAAREIFAWLVRGRK([AEEA-AEEA-γGlu-Trx-C20 diacid])GGGGEASELSTAALGRLSAELHELATLPRTETGSGSP-NH2 |  |  | 10000 | 10.9 | 
18 | Compound 0097 (peptide) peptide: HGEGTFTSDVSSYLEEQAARK([AEEA-AEEA-γGlu-Decanoyl(10-(4-HOOC-PhO))])FIEWLVRGK([AEEA-AEEA-γGlu-Decanoyl(10-(4-HOOC-PhO))])GEGGGGGEASELSTAALGRLSAELHELATLPRTETGSGSP-NH2 | 10 | 93.1 |  |  | 
19 | Compound 0099 (peptide) peptide: HWEGTFTSDVSSYLEEQAARK([AEEA-AEEA-γGlu-Decanoyl(10-(4-HOOC-PhO))])FIEWLVRGK([AEEA-AEEA-γGlu-Decanoyl(10-(4-HOOC-PhO))])GEGEASELSTAALGRLSAELHELATLPRTETGSGSP-NH2 | 9.6 | 44.9 |  |  | 
20 | Comparator compound 0015 (ends and bridges not checked) peptide: H[Aib]EGTFTSDVSSYLEGQAAK([AEEA-AEEA-γGlu-C18 diacid])EFIAWLVRGRGGQEPGQEPCNTATCATQRLAEFLRHSSNNFGPILPPTNVGSNTP-NH2 |  |  | 45 | 312 | 
21 | Comparator compound 0192 (peptide) peptide: H[Aib]EGTFTSDVSSYLEEQAAREFIAWLVRGRK([AEEA-AEEA-γGlu-Trx-C20 diacid])GGGGEASELSTAALGRPSAELHELATLPRTETGSGSP-NH2 |  |  | 10.8 | 10000 | 
22 | Compound 0100 (peptide) peptide: HWEGTFTSDVSSYLEEQAARK([AEEA-AEEA-γGlu-Decanoyl(10-(4-HOOC-PhO))])FIEWLVRGK([AEEA-AEEA-γGlu-Decanoyl(10-(4-HOOC-PhO))])GEGGGGGEASELSTAALGRLSAELHELATLPRTETGSGSP-NH2 | 6.8 | 30.4 |  |  | 
23 | Compound 0098 (Lys21 and Lys30 each (10-(4-carboxyphenoxy)decanoyl-gGlu-Ado-Ado); C-terminal amide) peptide: HGEGTFTSDVSSYLEEQAARKFIEWLVRGKGEGGGGGGGGGEASELSTAALGRLSAELHELATLPRTETGSGSP | 7.9 | 15.6 |  |  | 
24 | Compound 0101 (Lys21 and Lys30 each (10-(4-carboxyphenoxy)decanoyl-gGlu-Ado-Ado); C-terminal amide) peptide: HWEGTFTSDVSSYLEEQAARKFIEWLVRGKGEGGGGGGGGGEASELSTAALGRLSAELHELATLPRTETGSGSP | 7.1 | 10.2 |  |  | 
25 | Compound 0110 (peptide) peptide: H[Aib]EGTFTSDVSSYLEEQAARK([εLys-AEEA-AEEA-γGlu-C18 diacid])FIAWLVRGK([εLys-AEEA-AEEA-γGlu-C18 diacid])GGGGGGGGGEASELSTAALGRLSAELHELATLPRTETGSGSP-NH2 | 2.7 | 40.7 |  |  | 
26 | Compound 0105 (peptide) peptide: H[Aib]EGTFTSDVSSYLEEQAARK([AEEA-AEEA-γGlu-C16 diacid])FIEWLVRGK([AEEA-AEEA-γGlu-C16 diacid])GEGQEPGGASELSTAALGRLSAELHELATLPRTETGSGSP-NH2 | 1.1 | 30.8 |  |  | 
